From article PMC10462622 (Nature Communications, 2023)

Tests used:
[1] = target: T1, near-full-length human CUL5 (residues 12-780) (human, UniProt Q93034 12-780); test: cryo-EM structure; conditions: both partners purified
T1 construct: not shown: GB1, N-terminal, cleaved
T1 sequence: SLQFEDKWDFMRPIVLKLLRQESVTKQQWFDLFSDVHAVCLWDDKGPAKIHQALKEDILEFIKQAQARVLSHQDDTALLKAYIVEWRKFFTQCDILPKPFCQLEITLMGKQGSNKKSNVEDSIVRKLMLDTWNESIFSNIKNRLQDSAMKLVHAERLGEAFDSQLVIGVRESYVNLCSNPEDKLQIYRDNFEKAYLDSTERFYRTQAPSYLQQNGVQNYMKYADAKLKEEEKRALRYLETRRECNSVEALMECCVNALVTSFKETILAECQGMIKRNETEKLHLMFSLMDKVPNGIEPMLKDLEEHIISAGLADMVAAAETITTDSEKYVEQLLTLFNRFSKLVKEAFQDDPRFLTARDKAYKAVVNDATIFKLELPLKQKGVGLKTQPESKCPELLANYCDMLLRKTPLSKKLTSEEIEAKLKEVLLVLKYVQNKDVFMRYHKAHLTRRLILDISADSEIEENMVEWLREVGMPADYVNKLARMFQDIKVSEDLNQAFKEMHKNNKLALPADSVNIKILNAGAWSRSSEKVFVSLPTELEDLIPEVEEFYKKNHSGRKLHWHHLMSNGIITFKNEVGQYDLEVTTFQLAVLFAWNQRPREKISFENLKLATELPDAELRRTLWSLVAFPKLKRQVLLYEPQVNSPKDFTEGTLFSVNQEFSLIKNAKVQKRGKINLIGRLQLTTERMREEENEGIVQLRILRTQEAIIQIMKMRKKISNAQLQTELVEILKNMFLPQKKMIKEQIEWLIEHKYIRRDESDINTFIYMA

[2] = target: T2, HIV-1 NL4-3 Vif N48H (residues 1-176) (HIV-1 (pNL4-3), UniProt P12504 1-176, N48H); test: cryo-EM structure; conditions: both partners purified
T2 construct: also called N48H Vif; N48H NL4-3 Vif

B1: human RBX2 (residues 1-113) (natural protein)
chain: MADVEDGEETCALASHSGSSGSKSGGDKMFSLKKWNAVAMWSWDVECDTCAICRVQVMDACLRCQAENKQEDCVVVWGECNHSFHNCCMSLWVKQNNRCPLCQQDWVVQRIGK
notes: also called RING-box protein 2; source: E. coli BL21(DE3), co-expressed with GB1-CUL5 (pETDuet-1), purified as CUL5/RBX2 complex (Ni-NTA, SEC)
[1]
  binding result: binds

B2: human CBF-β (residues 1-156) (domain or fragment)
chain: MPRVVPDQRSKFENEEFFRKLSRECEIKYTGFRDRPHEERQARFQNACRDGRSEIAFVATGTNLSLQFFPASWQGEQRQTPSREYVDLEREAGKVYLKAPMILNGVCVIWKGWIDLQRLDGMGCLEFDEERAQQEDALAQQAFEEARRRTREFEDR
[2]
  binding result: binds
